Experimental data: US11130803B2, “Isoform-selective TGFβ1 inhibitors and use thereof” (Scholar Rock, Inc., priority 2018, dated 2021)
Residue numbers refer to the chain shown, from its start.

B1: Ab13: monoclonal antibody; VH SEQ ID NO: 242, VL SEQ ID NO: 243 (antibody, V domains shown)
VH: EVQLLESGGGLVQPGGSLRLSCAASGFTFADYAMTWVRQAPGKGLEWVSAISSFASAIYYADSVKGRFTISRDNSKNTLYLQMNSLRAEDTAVYYCARVSSGHWDFDYWGQGTLVTVSS
VL: DIQMTQSPSSLSASVGDRVTITCRASQSISSYLNWYQQKPGKAPKLLIYAASSLQSGVPSRFSGSGSGTDFTLTISSLQPEDFATYYCQQVYDPPLTFGGGTKVEIK
B2: Ab16: monoclonal antibody; VH SEQ ID NO: 247, VL SEQ ID NO: 241 (antibody, V domains shown)
VH: B1 VH with A30S, D31N, T35S, S53G, F54S, A55G, S56F, A57T, I58T
VL: B1 VL with M4L, S53N, V91T, D93T, P94V
B3: Ab17: monoclonal antibody; VH SEQ ID NO: 248, VL SEQ ID NO: 241 (antibody, V domains shown)
VH: B1 VH with L11V, A30S, D31S, Y32F, S53G, F54S, A55G, S56A, I58T, Y60F
VL: B1 VL with M4L, S53N, V91T, D93T, P94V
B4: Ab14: monoclonal antibody; VH SEQ ID NO: 244, VL SEQ ID NO: 243 (antibody, V domains shown)
VH: B1 VH with A30S, D31A, S53G, F54T, A55G, S56G, A57S, I58T
VL: B1 VL
B5: Ab15: monoclonal antibody; VH SEQ ID NO: 245, VL SEQ ID NO: 241 (antibody, V domains shown)
VH: EVQLVESGGGVVQPGRSLRLSCAASGFTFSDYAMVWVRQAPGKGLEWVSAISGSGFTTYYADSVKGRFTISRDNSKNTLYLQMNSLRAEDTAVYYCARVSSGHWDFDYWGQGTLVTVSS
VL: B1 VL with M4L, S53N, V91T, D93T, P94V
B6: Ab21: monoclonal antibody; VH SEQ ID NO: 129, VL SEQ ID NO: 15 (antibody, V domains shown)
VH: EVQLVESGGGLVQPGGSLRLSCAASGFTFSSFSMDWVRQAPGKGLEWVSYISPDASTIYYADSVKGRFTISRDNAKNSLYLQMNSLRAEDTAVYYCARGVLDYGDMLDPWGQGTLVTVSS
VL: DIQMTQSPSSLSASVGDRVTITCQASQDITNYLNWYQQKPGKAPKLLIYDASNLETGVPSRFSGSGSGTDFTFTISSLQPEDIATYYCQQADNHPPWTFGGGTKVEIK
B7: Ab23: monoclonal antibody; VH SEQ ID NO: 131, VL SEQ ID NO: 15 (antibody, V domains shown)
VH: B6 VH with D35N, D54S, S56D, S78T
VL: B6 VL
B8: Ab25: monoclonal antibody; VH SEQ ID NO: 133, VL SEQ ID NO: 15 (antibody, V domains shown)
VH: B6 VH with S30G
VL: B6 VL
B9: Ab28: monoclonal antibody; VH SEQ ID NO: 136, VL SEQ ID NO: 15 (antibody, V domains shown)
VH: B6 VH with A97V
VL: B6 VL
B10: Ab27: monoclonal antibody; VH SEQ ID NO: 135, VL SEQ ID NO: 15 (antibody, V domains shown)
VH: B6 VH with S31F, F32Y, S33A, D35N
VL: B6 VL

Each molecule was assayed against T1, recombinant human LTBP1-proTGFβ1 complex (Homo sapiens, UniProt P01137) (assay: Octet (Biolayer Interferometry) in vitro kinetic binding). Conditions: in M.
T1 construct: made in house; host or cells: Expi293F cells, transient co-transfection
T1 sequence (P01137 30-390): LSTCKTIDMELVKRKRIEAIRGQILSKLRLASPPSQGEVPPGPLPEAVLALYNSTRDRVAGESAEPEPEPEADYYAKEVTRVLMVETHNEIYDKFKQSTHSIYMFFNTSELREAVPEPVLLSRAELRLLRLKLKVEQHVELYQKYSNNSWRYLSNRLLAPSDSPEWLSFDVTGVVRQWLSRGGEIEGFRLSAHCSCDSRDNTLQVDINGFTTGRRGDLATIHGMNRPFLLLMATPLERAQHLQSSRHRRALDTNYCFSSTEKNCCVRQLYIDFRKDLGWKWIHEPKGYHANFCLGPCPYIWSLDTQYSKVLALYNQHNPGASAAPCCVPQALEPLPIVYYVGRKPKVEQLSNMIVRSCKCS
T1 sequence (Q14766 873-1507 partner): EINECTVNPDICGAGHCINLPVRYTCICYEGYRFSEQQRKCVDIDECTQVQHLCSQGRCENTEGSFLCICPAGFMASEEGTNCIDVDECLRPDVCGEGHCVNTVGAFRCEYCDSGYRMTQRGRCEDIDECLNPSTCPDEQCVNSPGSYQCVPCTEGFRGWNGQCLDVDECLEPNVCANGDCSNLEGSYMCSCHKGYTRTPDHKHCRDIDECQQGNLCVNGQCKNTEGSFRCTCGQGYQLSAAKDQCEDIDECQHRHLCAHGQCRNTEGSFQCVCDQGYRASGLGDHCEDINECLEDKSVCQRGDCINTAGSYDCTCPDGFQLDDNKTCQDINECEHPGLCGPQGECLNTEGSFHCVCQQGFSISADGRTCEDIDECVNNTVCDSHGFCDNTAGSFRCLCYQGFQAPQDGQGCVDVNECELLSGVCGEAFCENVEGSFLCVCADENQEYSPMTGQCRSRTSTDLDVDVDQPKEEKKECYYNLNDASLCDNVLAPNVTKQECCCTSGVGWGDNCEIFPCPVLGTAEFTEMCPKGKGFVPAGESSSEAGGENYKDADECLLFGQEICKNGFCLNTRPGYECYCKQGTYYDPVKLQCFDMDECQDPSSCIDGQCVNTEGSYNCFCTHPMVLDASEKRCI
Description: (§1) Biolayer Interferometry (BLI):BLI is a label-free technology for optically measuring biomolecular interactions, e.g., between a ligand immobilized on the biosensor tip surface and an analyte in solution. BLI provides the ability to monitor binding specificity, rates of association and dissociation, or concentration, with precision and accuracy. BLI platform instruments are commercially available, for example, from ForteBio and are commonly referred to as the Octet® System.
(§2) BLI-based binding assays are widely used in the art for measuring affinities and kinetics of antibodies to antigens. It is a label-free technology in which biomolecular interactions are analyzed on the basis of optical interference. One of the proteins, for example, an antibody being tested, can be immobilized on the biosensor tip. When the other protein in solution, for example, an antigen, becomes bound to the immobilized antibody, it causes a shift in the interference pattern, which can be measured in real-time. This allows the monitoring of binding specificity, rates of association and dissociation, as well as concentration dependency. […] Due to its ease of use and fast results, BLI-based assays such as the Octet® system (available from ForteBio/Molecular Devices, Fremont Calif.), are particularly convenient when used as an initial screening method to identify and separate a pool of “binders” from a pool of “non-binders” or “weak binders” in the screening process.
(§3) Table 8 below provides non-limiting examples of high-affinity, context-independent proTGFβ1 antibodies encompassed by the present invention. The table provides representative results from in vitro binding assays, as measured by Octet®.
(§4) Column (A) of the table lists monoclonal antibodies with discrete amino acid sequences. […] Columns (B), (D), (E) and (F) provide affinities of each of the listed antibodies, measured in KD. […] Average KD values of (B) and (C) are shown in the corresponding column (D), which collectively represents affinities of the antibodies to ECM- or matrix-associated proTGFβ1 complexes. Similarly, Average KD values of (E) and (F) are shown in the corresponding column (G), which collectively represents affinities of the antibodies to cell-surface or cell-associated proTGFβ1 complexes. Finally, relative ratios between the average KD values from columns (D) and (G) are expressed as “fold bias” in column (H). Thus, the greater the number of column (H) is, the greater bias exists for the particular antibody, when comparing binding preferences of the antibody for matrix-associated complexes and cell-surface complexes. This is one way of quantitatively representing and comparing inherent bias of antibodies to their target complexes. Such analyses may be useful in guiding the selection process for a candidate antibody for particular therapeutic use.
(§5) In some embodiments, the binding affinity of an antibody, or antigen binding portion thereof, to an antigen (e.g., protein complex), such as presenting molecule-proTGFβ1 complexes, is determined using an Octet assay. In some embodiments, an Octet assay is an assay that determines one or more a kinetic parameters indicative of binding between an antibody and antigen. In some embodiments, an Octet® system (ForteBio, Menlo Park, Calif.) is used to determine the binding affinity of an antibody, or antigen binding portion thereof, to presenting molecule-proTGFβ1 complexes. For example, binding affinities of antibodies may be determined using the fortéBio Octet QKe dip and read label free assay system utilizing bio-layer interferometry. In some embodiments, antigens are immobilized to biosensors (e.g., streptavidin-coated biosensors) and the antibodies and complexes (e.g., biotinylated presenting molecule-proTGFβ1 complexes) are presented in solution at high concentration ([…]) to measure binding interactions. […]

Row | (B) hLTBP1, Matrix-associated proTGFb1 (KD) | Molecule
1 | 2.76E−10 | B1
2 | 1.81E−10 | B2
3 | 1.74E−10 | B3
4 | 3.36E−10 | B4
5 | 1.50E−10 | B5
6 | 2.25E−10 | B6
7 | 4.17E−10 | B7
8 | 2.17E−10 | B8
9 | 3.40E−10 | B9
10 | 1.78E−10 | B10

What follows are molecules tested against T2, recombinant human LRRC33-proTGFβ1 complex (Homo sapiens, UniProt P01137) in the same assay as above. Conditions: in M.
T2 construct: made in house
T2 sequence (P01137 30-390): as the sequence (P01137 30-390) above
T2 sequence (Q86YC3 19-650 partner limits assumed): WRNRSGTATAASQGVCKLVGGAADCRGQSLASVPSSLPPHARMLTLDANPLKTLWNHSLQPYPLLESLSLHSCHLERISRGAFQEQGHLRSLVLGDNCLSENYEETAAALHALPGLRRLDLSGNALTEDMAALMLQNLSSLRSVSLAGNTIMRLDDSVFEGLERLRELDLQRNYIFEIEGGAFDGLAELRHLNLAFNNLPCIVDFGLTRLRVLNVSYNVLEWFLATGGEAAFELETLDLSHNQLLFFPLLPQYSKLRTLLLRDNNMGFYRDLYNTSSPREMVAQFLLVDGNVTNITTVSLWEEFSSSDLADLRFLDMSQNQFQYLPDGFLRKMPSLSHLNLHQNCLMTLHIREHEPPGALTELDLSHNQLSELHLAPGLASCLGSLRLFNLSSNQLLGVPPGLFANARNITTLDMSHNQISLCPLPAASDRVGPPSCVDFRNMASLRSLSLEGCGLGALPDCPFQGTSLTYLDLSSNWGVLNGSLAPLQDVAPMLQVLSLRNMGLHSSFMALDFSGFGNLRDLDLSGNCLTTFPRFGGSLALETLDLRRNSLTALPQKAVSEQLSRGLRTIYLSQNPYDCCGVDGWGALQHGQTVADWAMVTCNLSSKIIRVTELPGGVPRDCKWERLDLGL
Description: as §1, §2, §3, §4, §5

Row | (F) hLRRC33, Cell-associated proTGFb1 (KD) | Molecule
11 | 1.40E−09 | B1
12 | 6.31E−10 | B2
13 | 6.58E−10 | B3
14 | 1.34E−09 | B4
15 | 7.02E−10 | B5
16 | 4.55E−10 | B6
17 | 4.55E−10 | B7
18 | 4.09E−10 | B8
19 | 4.09E−10 | B9
20 | 2.99E−10 | B10

The molecules below were run against T3, recombinant human GARP-proTGFβ1 complex (Homo sapiens, UniProt P01137) in the same assay as above. Conditions: in M.
T3 construct: made in house
T3 sequence (P01137 30-390): as the sequence (P01137 30-390) above
T3 sequence (Q14392 20-627 partner limits assumed): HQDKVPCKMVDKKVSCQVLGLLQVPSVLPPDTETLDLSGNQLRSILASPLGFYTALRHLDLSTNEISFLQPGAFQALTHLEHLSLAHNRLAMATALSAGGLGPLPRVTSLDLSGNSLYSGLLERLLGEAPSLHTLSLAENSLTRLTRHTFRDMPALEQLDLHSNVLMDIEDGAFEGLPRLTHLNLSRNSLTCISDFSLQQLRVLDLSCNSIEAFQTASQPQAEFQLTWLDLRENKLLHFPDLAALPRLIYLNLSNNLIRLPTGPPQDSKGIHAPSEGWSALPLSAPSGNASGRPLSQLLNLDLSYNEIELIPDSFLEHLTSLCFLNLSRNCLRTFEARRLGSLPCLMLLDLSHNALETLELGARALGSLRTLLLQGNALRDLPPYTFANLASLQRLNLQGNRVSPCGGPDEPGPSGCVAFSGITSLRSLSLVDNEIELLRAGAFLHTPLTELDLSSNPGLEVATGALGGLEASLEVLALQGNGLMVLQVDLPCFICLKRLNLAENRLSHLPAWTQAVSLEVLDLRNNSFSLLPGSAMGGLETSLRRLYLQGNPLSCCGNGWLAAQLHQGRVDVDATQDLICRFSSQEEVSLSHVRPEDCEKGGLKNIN
Description: as §1, §2, §3, §4, §5

Row | (E) hGARP, Cell-associated proTGFb1 (KD) | Molecule
21 | 1.00E−08 | B1
22 | 4.16E−09 | B2
23 | 8.62E−09 | B3
24 | 1.05E−08 | B4
25 | 7.01E−09 | B5
26 | 8.33E−10 | B6
27 | 1.34E−09 | B7
28 | 4.88E−10 | B8
29 | 7.97E−10 | B9
30 | 4.24E−10 | B10

These molecules were tested against T4, recombinant human LTBP3-proTGFβ1 complex (Homo sapiens, UniProt P01137) in the same assay as above. Conditions: in M.
T4 construct: made in house; host or cells: Expi293F cells, transient co-transfection
T4 sequence (P01137 30-390): as the sequence (P01137 30-390) above
T4 sequence (Q9NS15 866-1039 partner limits assumed): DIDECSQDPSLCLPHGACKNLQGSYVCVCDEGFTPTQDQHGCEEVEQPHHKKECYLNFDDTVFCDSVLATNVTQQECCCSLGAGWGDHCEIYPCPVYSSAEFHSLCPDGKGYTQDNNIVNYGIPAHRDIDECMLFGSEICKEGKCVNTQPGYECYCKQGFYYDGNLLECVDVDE
Description: as §1, §2, §3, §4, §5

Row | (C) hLTBP3, Matrix-associated proTGFb1 (KD) | Molecule
31 | 2.49E−10 | B1
32 | 1.32E−10 | B2
33 | 2.08E−10 | B3
34 | 3.46E−10 | B4
35 | 1.68E−10 | B5
36 | 2.68E−10 | B6
37 | 4.68E−10 | B7
38 | 1.52E−10 | B8
39 | 3.16E−10 | B9
40 | 2.38E−10 | B10

The molecules below were run on matrix-associated (LTBP1/LTBP3) and cell-associated (GARP/LRRC33) proTGFβ1 complexes (assay: Octet: average KD and fold bias, matrix- vs cell-associated complexes). Conditions: average KD of (E) and (F), cell-associated complexes, read-out: (G) Cell AVRG.
Format: binding, human
Description: Column (A) of the table lists monoclonal antibodies with discrete amino acid sequences. […] Columns (B), (D), (E) and (F) provide affinities of each of the listed antibodies, measured in KD. […] Average KD values of (B) and (C) are shown in the corresponding column (D), which collectively represents affinities of the antibodies to ECM- or matrix-associated proTGFβ1 complexes. Similarly, Average KD values of (E) and (F) are shown in the corresponding column (G), which collectively represents affinities of the antibodies to cell-surface or cell-associated proTGFβ1 complexes. Finally, relative ratios between the average KD values from columns (D) and (G) are expressed as “fold bias” in column (H). […] This is one way of quantitatively representing and comparing inherent bias of antibodies to their target complexes.
Average KD values between the two matrix-associated and cell-associated complexes are calculated, respectively (see columns (D) and (G)). These average KD values can then be used to ask whether bias in binding activities exists between complexes associated with matrix vs. complexes associated with cell surface (e.g., immune cells). Bias may be expressed as “fold-difference” in the average KD values, as illustrated in Table 8.

Row | Molecule | Kd [nM]
41 | B1 | 5.7
42 | B2 | 2.4
43 | B3 | 4.64
44 | B4 | 5.92
45 | B5 | 3.86
46 | B6 | 0.644
47 | B7 | 0.897
48 | B8 | 0.449
49 | B9 | 0.603
50 | B10 | 0.361

Same assay, conditions: ratio of average KD cell-associated / matrix-associated

Row | Molecule | (H) G/D (fold bias) [fold]
51 | B1 | 21.71
52 | B2 | 15.307
53 | B3 | 24.288
54 | B4 | 17.36
55 | B5 | 24.25
56 | B6 | 2.613
57 | B7 | 2.028
58 | B8 | 2.431
59 | B9 | 1.838
60 | B10 | 1.738

What follows are molecules tested on matrix-associated (LTBP1/LTBP3) and cell-associated (GARP/LRRC33) proTGFβ1 complexes in the same assay as above. Conditions: average KD of (B) and (C), read-out: (D) ECM AVRG.
Format: binding, human

Row | Molecule | Kd [nM]
61 | B1 | 0.263
62 | B2 | 0.157
63 | B3 | 0.191
64 | B4 | 0.341
65 | B5 | 0.159
66 | B6 | 0.246
67 | B7 | 0.443
68 | B8 | 0.184
69 | B9 | 0.328
70 | B10 | 0.208
